First the molecules themselves.
T1: mouse Claudin-6 (CLDN6) (mouse, UniProt Q9Z262 1-219)
T1 construct: whole, on cells; GFP fusion on engineered HEK293T cells; also called Mouse CLDN6; murine CLDN6
T1 sequence (looked up): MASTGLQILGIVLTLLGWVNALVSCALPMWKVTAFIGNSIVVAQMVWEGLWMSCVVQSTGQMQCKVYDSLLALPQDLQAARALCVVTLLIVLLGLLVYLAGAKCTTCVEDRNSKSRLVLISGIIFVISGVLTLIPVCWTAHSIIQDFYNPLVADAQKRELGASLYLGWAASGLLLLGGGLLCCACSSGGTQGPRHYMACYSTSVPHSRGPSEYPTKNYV

B1: AB1-4 (antibody, V domains shown)
VH: QVQLVQSGAEVKKPGASVKVSCKASGYTFTTYTMHWVRQAPGQGLEWMGFINPSSGYTDYAQKFQGRVTMTADTSTSTVYMELSSLRSEDTAVYYCANGDYYVAYWGQGTLVTVSS
VL: DIQLTQSPSSLSASVGDRVTMTCTASSSVSSTYFHWYQQKPGKAPKLLIYSTSNLASGVPSRFSGSGSGTDYTLTISSMQPEDAATYYCHQYHRSPLTFGQGTKLEIK
notes: humanized
B2: AB1-8 (antibody, V domains shown)
VH: B1 VH with V20M, M48I, M70L
VL: B1 VL with L48W
notes: humanized
B3: AB1-5 (antibody, V domains shown)
VH: B1 VH
VL: B1 VL with L48W
notes: humanized
B4: AB3-3 (antibody, V domains shown)
VH: EVQLLESGGGLVQPGGSMRLSCAASGFTFSNYWMNWVRQAPGKGLEWVAQIRLKSDNYATHYADSVKGRFTISRDDSKNTVYLQMNSLRAEDTGVYYCNDGPPSGCWGQGTLLTVSS
VL: DIQMTQSPSSLSASVGDRVTITCRISENIYSYLAWYQQKPGKAPKLLVYNAKILVEGVPSRFSGSGSGTDFTLTISSLQPEDFGTYYCQHHYTVPWTFGQGTKLEIK
notes: humanized
B5: AB3-4 (antibody, V domains shown)
VH: B4 VH with C106Y
VL: B4 VL with V48I, G84A
notes: humanized
B6: AB3-2 (antibody, V domains shown)
VH: B4 VH
VL: B4 VL with V48I, G84A
notes: humanized
B7: AB3-5 (antibody, V domains shown)
VH: B4 VH with C106Y
VL: B4 VL
notes: humanized

Residue numbers refer to the chain shown, from its start.

The target of one experiment is human Claudin-6 (CLDN6) (human) (UniProt P56747). Put plainly: FACS, 0.3 ug Ab, ARK2 cells (2nd Ab only 1351.21). On the technique in general: A flow cytometer gives signals particle by particle.
B1 registered an FACS fluorescence of 3640.
On the same count and under the same terms, then B2, with 5810; and B3, with 7490.
The same measure, in the same setting: then B4, with 1160; and B5, with 1320.
Still for that read-out and setting: then B6, with 14700; and B7, with 1280.

A further experiment has the same target. Put plainly: FACS, 1.5 ug Ab, ARK2 cells (2nd Ab only 1351.21).
As for B1, the FACS fluorescence was found to be 10000.
Same read-out and setting: then B2, with 17600; and B3, with 22400; and B4, with 54900.
In turn, B5 gave an FACS fluorescence of 1460.
In the case of B6, the FACS fluorescence was 33600.
The same measure, in the same setting: then B7, with 2910.

The target is the same in another experiment. Put plainly: FACS, 1.5 ug Ab, OVCA429 cells (2nd Ab only 885.77).
Molecule B1 returned an FACS fluorescence of 34600.
Same read-out and setting: next, B2: 66000; B3: 54300.
Same read-out and setting: then B4, with 88700.
For B5, the FACS fluorescence worked out at 2960.
Still for that read-out and setting: next, B6: 85900; B7: 2950.

A further experiment has the same target. Put plainly: FACS, 0.3 ug Ab, 293T clone expressing human CLDN6 (2nd Ab only 768.07).
As for B1, the FACS fluorescence amounted to 102000.
Same read-out and setting: then B2, with 98800; and B3, with 138000.
On the same count and under the same terms, next, B4: 251000.
For the molecule B5, the FACS fluorescence worked out at 11600.
The same measure, in the same setting: next, B6: 309000.
On the same count and under the same terms, next, B7: 13300.

The target is the same in a further experiment. In words: FACS, 1.5 ug Ab, 293T clone expressing human CLDN6 (2nd Ab only 768.07).
As for B1, the FACS fluorescence worked out at 197000.
Still for that read-out and setting: then B2, with 210000; and B3, with 213000; and B4, with 340000.
On to B5, for which the FACS fluorescence came to 55800.
On the same count and under the same terms, then B6, with 396000; and B7, with 48600.

The target of a further experiment is T1, mouse Claudin-6 (CLDN6). Put plainly: FACS, 293T clone expressing mouse CLDN6, dose not stated (2nd Ab only 1061.72). Here is the method:
Two doses (1.5 μg or 0.3 μg) of the humanized antibodies were tested for binding to either human CLDN6 or murine CLDN6 which proteins were expressed by engineered 293T clones.
Take B1: the FACS fluorescence came to 75900.
Same read-out and setting: then B2, with 122000; and B3, with 128000.
B4 had an FACS fluorescence of 23000.
B5 came in with an FACS fluorescence of 1520.
Molecule B6 returned an FACS fluorescence of 31700.
Same read-out and setting: then B7, with 783.

(Values after US20230049752A1 (University of California, published 2023).)
